Laboratory results as given in article PMC9418327.

Molecular target: Dfd (Deformed);Exd (Extradenticle) (Drosophila melanogaster?;Drosophila melanogaster?) (UniProt P07548+P40427)
Test: EMSA
Details: class 2 site printed as 9.1 mM in same passage; assay source not fully shown; 20 mM HEPES pH 7.9, 1.4 mM MgCl2, 1 mM ZnSO4, 40 mM KCl, 0.1 mM EGTA, 5% glycerol, 10 mM DTT, 0.1% NP40, 200 ng poly(dI-dC), 3 ug BSA, 2 pmol Cy5 dsDNA in …

Dfd (Deformed);Exd (Extradenticle) (Drosophila melanogaster?;Drosophila melanogaster?), sequence (P07548 whole entry, chain 1 of 2): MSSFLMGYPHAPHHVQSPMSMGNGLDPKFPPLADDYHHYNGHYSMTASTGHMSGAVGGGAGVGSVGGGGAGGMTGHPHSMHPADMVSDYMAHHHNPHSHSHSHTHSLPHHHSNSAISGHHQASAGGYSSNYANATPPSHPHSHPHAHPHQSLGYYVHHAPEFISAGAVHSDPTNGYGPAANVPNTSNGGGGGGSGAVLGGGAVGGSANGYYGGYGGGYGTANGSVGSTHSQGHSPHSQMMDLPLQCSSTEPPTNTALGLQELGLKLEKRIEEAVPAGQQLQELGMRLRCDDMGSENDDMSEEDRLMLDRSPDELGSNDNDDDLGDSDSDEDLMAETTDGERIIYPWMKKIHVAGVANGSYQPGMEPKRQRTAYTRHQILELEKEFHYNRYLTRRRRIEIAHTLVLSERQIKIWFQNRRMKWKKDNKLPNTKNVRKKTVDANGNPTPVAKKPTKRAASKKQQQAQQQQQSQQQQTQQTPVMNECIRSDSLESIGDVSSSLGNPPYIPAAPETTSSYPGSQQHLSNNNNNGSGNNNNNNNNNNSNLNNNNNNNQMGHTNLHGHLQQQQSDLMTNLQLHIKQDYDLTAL
Dfd (Deformed);Exd (Extradenticle) (Drosophila melanogaster?;Drosophila melanogaster?), sequence (P40427 whole entry, chain 2 of 2): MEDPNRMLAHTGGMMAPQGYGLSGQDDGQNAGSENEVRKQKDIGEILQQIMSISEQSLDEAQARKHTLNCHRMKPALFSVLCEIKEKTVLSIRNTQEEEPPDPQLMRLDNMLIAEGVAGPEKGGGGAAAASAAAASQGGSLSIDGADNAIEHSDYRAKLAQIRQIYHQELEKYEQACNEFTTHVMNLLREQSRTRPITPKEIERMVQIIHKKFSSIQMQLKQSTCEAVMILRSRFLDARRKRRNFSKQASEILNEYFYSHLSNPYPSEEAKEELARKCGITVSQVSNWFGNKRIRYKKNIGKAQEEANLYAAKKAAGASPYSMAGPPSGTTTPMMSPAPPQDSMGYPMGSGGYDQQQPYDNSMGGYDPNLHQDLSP

modC enhancer site I
Kd (mM (so in the source); probably nM)): 5.5
